In publication PMC4491180, “Grb2 monomer–dimer equilibrium determines normal versus oncogenic function” (Nature Communications, 2015):
Where no end group is shown, it is not given here. [ ]: non-standard residue; d: D form. pY = N[C@@H](Cc1ccc(OP(=O)(O)O)cc1)C(=O)O

Experiments:
[1] = biological target: T1, wild-type Grb2 (growth factor receptor-bound protein 2), bacterially expressed and purified (UniProt P62993 1-217, Atto488 on the N-terminus of the labelled copy (100 nM); the titrated copy unlabelled); assay: MST; monomer–dimer equilibrium of Grb2 in the presence of a saturating concentration of pShc peptide; settings: both partners purified
T1 construct: cloned into a modified pET28a with a TEV site; also called ^WTGrb2; dGrb2

[2] = biological target: T2, bacterial GFP-tagged Grb2 on GFP-trap beads (smFLIM) (UniProt P62993 1-217); assay: FRET or BRET; smFLIM: GFP–Grb2 on GFP-trap beads, RFP–Grb2 added for 1 h, 20 mM Tris-HCl, 50 mM NaCl, pH 8.0; then 10 μM phospho-Shc peptide for an hour; settings: both partners purified
T2 construct: full-length Grb2; The second copy (FRET acceptor, added in solution) carried RFP (mRFP) instead of GFP; By the order of the cloning sites the fluorescent protein lies before Grb2; pET28a cut at NdeI may add an N-terminal His tag (surmised); also called GFP–Grb2; RFP–Grb2; source: E. coli (pET28a construct)

binding result [1]: binds
binding result [2]: binds
B1: phospho-Shc peptide (peptide)
peptide: EEPPDHQ[pY]YNDFPGK
notes: Printed as EEPPDHQ(pY)YN-DFPGK; also called pShc; source: synthetic peptide, bought: GenScript
